± gives the standard deviation of the averaged measurements.
Experiment: total protein half-life in vivo (active degradation + dilution); higher = more stable protein
[1] = E. coli NCM3722 delta-clpP delta-lon delta-hslV, growth: N-lim chemostat, doubling time 6 h
[2] = E. coli NCM3722 delta-clpP, growth: N-lim chemostat, doubling time 6 h
[3] = E. coli NCM3722 delta-hslV, growth: N-lim chemostat, doubling time 6 h
[4] = E. coli NCM3722 delta-lon, growth: N-lim chemostat, doubling time 6 h
[5] = E. coli NCM3722 delta-smpB, growth: N-lim chemostat, doubling time 6 h
[6] = wild type E. coli NCM3722, growth: C-lim chemostat, doubling time 3 h
[7] = wild type E. coli NCM3722, growth: C-lim chemostat, doubling time 6 h
[8] = wild type E. coli NCM3722, growth: C-lim chemostat, doubling time 12 h
[9] = wild type E. coli NCM3722, growth: N-lim chemostat, doubling time 6 h
[10] = wild type E. coli NCM3722, growth: N-lim chemostat, doubling time 12 h
[11] = wild type E. coli NCM3722, growth: P-lim chemostat, doubling time 6 h
[12] = wild type E. coli NCM3722, growth: P-lim chemostat, doubling time 12 h

## MSQQVIIFDTTLRDGEQALQASLSVKEKLQIALALERMGVDVMEVGFPVSSPGDFESVQTIARQVKNSRVCALARCVEKDIDVAAESLKVAEAFRIHTFIATSPMHIATKLRSTLDEVIERAIYMVKRARNYTDDVEFSCEDAGRTPIADLARVVEAAINAGATTINIPDTVGYTMPFEFAGIISGLYERVPNIDKAIISVHTHDDLGLAVGNSLAAVHAGARQVEGAMNGIGERAGNCSLEEVIMAIKVRKDILNVHTAINHQEIWRTSQLVSQICNMPIPANKAIVGSGAFAHSSGIHQDGVLKNRENYEIMTPESIGLNQIQLNLTSRSGRAAVKHRMDEMGYKESEYNLDNLYDAFLKLADKKGQVFDYDLEALAFIGKQQEEPEHFRLDYFSVQSGSNDIATAAVKLACGEEVKAEAANGNGPVDAVYQAINRITEYNVELVKYSLTAKGHGKDALGQVDIVANYNGRRFHGVGLATDIVESSAKAMVHVLNNIWRAAEVEKELQRKAQHNENNKETV
[1]
  total protein half-life in vivo: 4.72 ± 0.57 h
[2]
  total protein half-life in vivo: 4.48 ± 0.55 h
[3]
  total protein half-life in vivo: 1.61 ± 0.08 h
[4]
  total protein half-life in vivo: 1.77 ± 0.1 h
[5]
  total protein half-life in vivo: 1.492 ± 0.0018 h
[6]
  total protein half-life in vivo: 2.21 ± 0.067 h
[7]
  total protein half-life in vivo: 3.71 ± 0.24 h
[8]
  total protein half-life in vivo: 4.45 ± 0.23 h
[9]
  total protein half-life in vivo: 1.63 ± 0.16 h
[10]
  total protein half-life in vivo: 1.92 ± 0.043 h
[11]
  total protein half-life in vivo: 3.83 ± 0.44 h
[12]
  total protein half-life in vivo: 6.6 ± 0.52 h

## MPRANEIKKGMVLNYNGKLLLVKDIDIQSPTARGAATLYKMRFSDVRTGLKVEERFKGDDIVDTVTLTRRYVDFSYVDGNEYVFMDKEDYTPYTFTKDQIEEELLFMPEGGMPDMQVLTWDGQLLALELPQTVDLEIVETAPGIKGASASARNKPATLSTGLVIQVPEYLSPGEKIRIHIEERRYMGRAD [P0A6N8]
[1]
  total protein half-life in vivo: 5.17 ± 0.42 h
[2]
  total protein half-life in vivo: 4.37 ± 0.34 h
[3]
  total protein half-life in vivo: 4.21 ± 0.071 h
[4]
  total protein half-life in vivo: 5.35 ± 0.38 h
[5]
  total protein half-life in vivo: 4.45 ± 0.71 h
[6]
  total protein half-life in vivo: 3.25 ± 0.46 h
[7]
  total protein half-life in vivo: 5.42 ± 0.098 h
[8]
  total protein half-life in vivo: 11.1 ± 0.96 h
[9]
  total protein half-life in vivo: 4.59 ± 0.062 h
[10]
  total protein half-life in vivo: 6.944 ± 0.044 h
[11]
  total protein half-life in vivo: 5.26 ± 0.26 h
[12]
  total protein half-life in vivo: 9.67 ± 0.66 h

## MRVLLAPMEGVLDSLVRELLTEVNDYDLCITEFVRVVDQLLPVKVFHRICPELQNASRTPSGTLVRVQLLGQFPQWLAENAARAVELGSWGVDLNCGCPSKTVNGSGGGATLLKDPELIYQGAKAMREAVPAHLPVSVKVRLGWDSGEKKFEIADAVQQAGATELVVHGRTKEQGYRAEHIDWQAIGDIRQRLNIPVIANGEIWDWQSAQQCMAISGCDAVMIGRGALNIPNLSRVVKYNEPRMPWPEVVALLQKYTRLEKQGDTGLYHVARIKQWLSYLRKEYDEATELFQHVRVLNNSPDIARAIQAIDIEKL
[1]
  total protein half-life in vivo: 5.15 ± 0.54 h
[2]
  total protein half-life in vivo: 4.72 ± 0.35 h
[3]
  total protein half-life in vivo: 4.92 ± 0.12 h
[5]
  total protein half-life in vivo: 4.76 ± 0.15 h
[6]
  total protein half-life in vivo: 2.89 ± 0.34 h
[8]
  total protein half-life in vivo: 10.6 h
[9]
  total protein half-life in vivo: 5.2 ± 0.37 h
[10]
  total protein half-life in vivo: 8.91 ± 1.2 h
[11]
  total protein half-life in vivo: 5.81 ± 0.9 h
[12]
  total protein half-life in vivo: 11.7 ± 1.4 h

## MNLDDKSLFLDAMEDVQPLKRATDVHWHPTRNQRAPQRIDTLQLDNFLTTGFLDIIPLSQPLEFRREGLQHGVLDKLRSGKYPQQASLNLLRQPVEECRKMVFSFIQQALADGLRNVLIIHGKGRDDKSHANIVRSYVARWLTEFDDVQAYCTALPHHGGSGACYVALRKTAQAKQENWERHAKRSR
[2]
  total protein half-life in vivo: 3.15 ± 0.09 h
[3]
  total protein half-life in vivo: 0.92 ± 0.056 h
[5]
  total protein half-life in vivo: 0.889 h
[6]
  total protein half-life in vivo: 0.985 h
[7]
  total protein half-life in vivo: 1.35 h
[8]
  total protein half-life in vivo: 1.42 h
[9]
  total protein half-life in vivo: 1.06 ± 0.055 h
[10]
  total protein half-life in vivo: 1.33 ± 0.064 h
[11]
  total protein half-life in vivo: 1.28 h
[12]
  total protein half-life in vivo: 1.8 ± 0.54 h

## MSDNLPWKTWTPDDLAPPQAEFVPIVEPEETIIEEAEPSLEQQLAQLQMQAHEQGYQAGIAEGRQQGHKQGYQEGLAQGLEQGLAEAKSQQAPIHARMQQLVSEFQTTLDALDSVIASRLMQMALEAARQVIGQTPTVDNSALIKQIQQLLQQEPLFSGKPQLRVHPDDLQRVDDMLGATLSLHGWRLRGDPTLHPGGCKVSADEGDLDASVATRWQELCRLAAPGVV
[6]
  total protein half-life in vivo: 2.19 ± 0.17 h
[7]
  total protein half-life in vivo: 3.64 ± 0.27 h
[8]
  total protein half-life in vivo: 5.33 ± 0.28 h

## MLLPWLILIPFIGGFLCWQTERFGVKVPRWIALITMGLTLALSLQLWLQGGYSLTQSAGIPQWQSEFDMPWIPRFGISIHLAIDGLSLLMVVLTGLLGVLAVLCSWKEIEKYQGFFHLNLMWILGGVIGVFLAIDMFLFFFFWEMMLVPMYFLIALWGHKASDGKTRITAATKFFIYTQASGLVMLIAILALVFVHYNATGVWTFNYEELLNTPMSSGVEYLLMLGFFIAFAVKMPVVPLHGWLPDAHSQAPTAGSVDLAGILLKTAAYGLLRFSLPLFPNASAEFAPIAMWLGVIGIFYGAWMAFAQTDIKRLIAYTSVSHMGFVLIAIYTGSQLAYQGAVIQMIAHGLSAAGLFILCGQLYERIHTRDMRMMGGLWSKMKWLPALSLFFAVATLGMPGTGNFVGEFMILFGSFQVVPVITVISTFGLVFASVYSLAMLHRAYFGKAKSQIASQELPGMSLRELFMILLLVVLLVLLGFYPQPILDTSHSAIGNIQQWFVNSVTTTRP [P0AFE8]
[1]
  total protein half-life in vivo: 7.36 ± 0.89 h
[2]
  total protein half-life in vivo: 6.54 ± 0.28 h
[3]
  total protein half-life in vivo: 5.66 ± 0.85 h
[4]
  total protein half-life in vivo: 6.41 ± 0.17 h
[5]
  total protein half-life in vivo: 6.818 ± 0.033 h
[10]
  total protein half-life in vivo: 12.04 ± 0.017 h
[11]
  total protein half-life in vivo: 6.24 ± 0.25 h
